Holding throughout (assay): multimer staining
Assay [1] concerns the target T1, HSD17B12 peptide on HLA-DPA1*01:03 / HLA-DPB1*04:01 (human).
T1 peptide: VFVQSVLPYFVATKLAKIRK

The target in assay [2] is T2, LGSN peptide on HLA-DPA1*01:03 / HLA-DPB1*04:01 (human).
T2 peptide: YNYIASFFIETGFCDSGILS

In assay [3] the target is T3, MAGE-A2 peptide on HLA-DPA1*01:03 / HLA-DPB1*04:01 (human).
T3 peptide: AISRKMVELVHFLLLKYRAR

Assay [4] concerns the target T4, MUC5AC peptide on HLA-DPA1*01:03 / HLA-DPB1*04:01 (human).
T4 peptide: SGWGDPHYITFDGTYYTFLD

Assay [5] has as its target T5, CCND1 peptide on HLA-DPA1*01:03 / HLA-DPB1*04:01 (human).
T5 peptide: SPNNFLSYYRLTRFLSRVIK

B1: 05-HSD17B12225-244 (TCR)
alpha TRAV22*01 TRAJ18*01 CDR3: CAVAPYDRGSTLGRLYF
beta TRBV19*01 TRBJ2-5*01 CDR3: CASSTGQGLETQYF
Regarding B1, in assay [1], the binding result is recorded as “recognises”.

B2: 05-LGSN296-315 (TCR)
alpha TRAV9-2*03 TRAJ32*01 CDR3: CALSDLSYGGATNKLIF
beta TRBV27*01 TRBJ1-5*01 CDR3: CASSKGQGLGNQPQHF
As to B2, in assay [2], the binding result is listed as “recognises”.

B3: 06-MAGE-A2108-127 (TCR)
alpha TRAV19*01 TRAJ40*01 CDR3: CALSVGTYKYIF
beta TRBV7-9*01 TRBJ2-5*01 CDR3: CASSPGTGGRETQYF
In the case of B3, in assay [3], the binding result is listed as “recognises”.

B4: 03-MAGE-A2108-127 (TCR)
alpha TRAV36/DV7*04 TRAJ40*01 CDR3: CAVEVNSGTYKYIF
beta TRBV2*01 TRBJ1-1*01 CDR3: CASRRDLAAFF
Consider B4, for which the binding result in assay [3] is reported as “recognises”.

B5: 05-MUC5AC4922-4941 (TCR)
Valpha: QTVTQSQPEMSVQEAETVTLSCTYDTSESNYYLFWYKQPPSRQMILVIRQEAYKQQNATENRFSVNFQKAAKSFSLKISDSQLGDTAMYFCAFMKRAETSGSRLTFGEGTQLTVNP
beta TRBV6-2*01 TRBJ2-5*01 CDR3: CASSYWPTRETQYF
B5: the binding result in assay [4] is listed as “recognises”.

B6: 03-CCND1219-238 (TCR)
alpha TRAV2*01 TRAJ21*01 CDR3: CAVCTLYNFNKFYF
beta TRBV6-5*01 TRBJ2-1*01 CDR3: CASLTDNNEQFF
Regarding B6, the binding result in assay [5] is “recognises”.

The record behind these values is US20220281948A1 (published 2022).
